# Assay results from patent US20090083877A1, “Transcription Factors, DNA and Methods for Introduction of Value-Added Seed Traits and Stress Tolerance” (priority 2002, published 2009).
# “Also recorded” adds a separate entry of the source.
# B1: ABF3: Arabidopsis ABI5-like ABA-Response Element-Binding Factor, bZIP, At4g34000 (protein)
# chain: MGSRLNFKSFVDGVSEQQPTVGTSLPLTRQNSVFSLTFDEFQNSWGGGIGKDFGSMNMDELLKNIWTAEESHSMMGNNTSYTNISNGNSGNTVINGGGNNIGGLAVGVGGESGGFFTGGSLQRQGSLTLPRTISQKRVDDVWKELMKEDDIGNGVVNGGTSGIPQRQQTLGEMTLEEFLVRAGVVREEPQPVESVTNFNGGFYGFGSNGGLGTASNGFVANQPQDLSGNGVAVRQDLLTAQTQPLQMQQPQMVQQPQMVQQPQQLIQTQERPFPKQTTIAFSNTVDVVNRSQPATQCQEVKPSILGIHNHPMNNNLLQAVDFKTGVTVAAVSPGSQMSPDLTPKSALDASLSPVPYMFGRVRKTGAVLEKVIERRQKRMIKNRESAARSRARKQAYTMELEAEIAQLKELNEELQKKQVEIMEKQKNQLLEPLRQPWGMGCKRQCLRRTLTGPW
# B2: ABF2: Arabidopsis ABI5-like ABA-Response Element-Binding Factor, bZIP, At1g45249 (protein, listed as Arabidopsis thaliana)
# chain: MDGSMNLGNEPPGDGGGGGGLTRQGSIYSLTFDEFQSSVGKDFGSMNMDELLKNIWSAEETQAMASGVVPVLGGGQEGLQLQRQGSLTLPRTLSQKTVDQVWKDLSKVGSSGVGGSNLSQVAQAQSQSQSQRQQTLGEVTLEEFLVRAGVVREEAQVAARAQIAENNKGGYFGNDANTGFSVEFQQPSPRVVAAGVMGNLGAETANSLQVQGSSLPLNVNGARTTYQQSQQQQPIMPKQPGFGYGTQMGQLNSPGIRGGGLVGLGDQSLTNNVGFVQGASAAIPGALGVGAVSPVTPLSSEGIGKSNGDSSSLSPSPYMFNGGVRGRKSGTVEKVVERRQRRMIKNRESAARSRARKQAYTVELEAEVAKLKEENDELQRKQARIMEMQKNQETEMRNLLQGGPKKKLRRTESGPW
# B3: ABF4: Arabidopsis ABI5-like ABA-Response Element-Binding Factor, bZIP, At3g19290 (protein, listed as Arabidopsis thaliana)
# chain: MGTHINFNNLGGGGHPGGEGSSNQMKPTGSVMPLARQSSVYSLTFDELQNTLGGPGKDFGSMNMDELLKSIWTAEEAQAMAMTSAPAATAVAQPGAGIPPPGGNLQRQGSLTLPRTISQKTVDEVWKCLITKDGNMEGSSGGGGESNVPPGRQQTLGEMTLEEFLFRAGVVREDNCVQQMGQVNGNNNNGFYGNSTAAGGLGFGFGQPNQNSITFNGTNDSMILNQPPGLGLKMGGTMQQQQQQQQLLQQQQQQMQQLNQPHPQQRLPQTIFPKQANVAFSAPVNITNKGFAGAANNSINNNNGLASYGGTGVTVAATSPGTSSAENNSLSPVPYVLNRGRRSNTGLEKVIERRQRRMIKNRESAARSRARKQAYTLELEAEIEKLKKTNQELQKKQAEMVEMQKNELKETSKRPWGSKRQCLRRTLTGPW
# Legend:
# [1] = tested on: ABA-inducible wheat Em promoter; experiment: Em-GUS reporter transactivation in transiently transformed maize mesophyll protoplasts; format: cell-based; conditions: for Transactivation of Em-GUS expression by overexpressed effector: maize mesophyll protoplasts, effector overexpressed alone
# Experimental: Plant Materials. Maize mesophyll protoplasts were isolated from 20-hr illuminated leaves of 10 day old maize seedlings that had been kept in the dark at 25° C. The middle part of the second leaves (about 6 cm in length) was cut into 0.5 mm strips with a razor blade and digested in an enzyme solution containing 1% (w/v) cellulose RS, 0.1% (w/v) macerozyme R10 (Yakult Honsha, Nishinomiya, Japan), 0.6 M mannitol, 10 mM MES (pH 5.7), 1 mM CaCl2, 1 mM MgCl2, 10 mM β-mercaptoethanol, and 0.1% BSA (w/v) for 3 hr at room temperature. Protoplasts were released by shaking on a rotary shaker at 80 rpm for 10 min and were filtered through a 70 μm nylon filter. Protoplasts were collected by centrifugation at 100 g for 2 min, washed in cold 0.6 M mannitol solution, centrifuged, and resuspended at 2×10^6/mL in cold 0.6 M mannitol. Electroporation conditions were 400 V/cm, 200 μF, 10 msec, and two pulses with a Biorad GenePulser apparatus. Each sample contained 5×10^4 protoplasts and about 50 μg DNA in 0.3 mL of 0.6 M mannitol and 20 mM KCl.
# (§1) Plasmid pBM207 contains the wheat (Triticum aestivum) Early Methionine-labeled (Em) promoter driving the expression of GUS, encoded by uida from Escherichia coli. Plasmid pDH359 contains ABI5 cDNA driven by Ubiquitin promoter. Plasmid pCR349.13S contains the 35S promoter driving the VP1 sense cDNA. Plasmid pDirect2.6 contains the Ubi promoter in a reverse orientation and was used as control construct to balance the total amount of input plasmid DNA between various treatments. Plasmid pAHC 18 contains the Ubi promoter driving firefly (Photinus pyralis) LUC cDNA and was included in transformations to provide an internal reference for non-ABA-inducible transient transcription in reporter enzyme assays. ABF1-ABF4, AREB3, and DPBF4 were amplified by PCR using gene-specific primers from an Arabidopsis cDNA library (Minet et al. Plant J. 2:417 (1992)) and were cloned into plasmid pDH349 (Gampala et al. J. Biol. Chem. 277: 1689 (2002)) containing the maize Ubiquitin promoter and nopaline synthase 3′ termination signals.
# The values in FIG. 2 are the average (±S.E.M.) of four replicate transformations.
# To test the involvement of ABI3-Like B3 domain transcription factors in ABA signaling, ABA-inducible reporter gene transactivation by the B3 domain-containing RAV2 was assayed in maize mesophyll protoplasts transiently co-transformed with a full length cDNA under transcriptional control of the Ubiquitin promoter. Activation of Em-GUS reporter gene expression by RAV2, relative to non-ABA inducible Ubi-LUC reference reporter as internal control, and functional interactions of RAV2 with VP1, ABI5, and the ABI5-Like ABF3 were compared in protoplasts treated with or without 100 uM ABA (see FIG. 3).
# [2] = tested on: ABA-inducible wheat Em promoter; experiment: Em-GUS reporter transactivation in transiently transformed rice protoplasts; format: cell-based, Oryza sativa; conditions: for Transactivation of Em-GUS expression by overexpressed effector: effector overexpressed alone, average of four replicate transformations
# Experimental: Embryonic rice (Oryza sativa) callus cultures (Radon 6 from the International Rice Research Institute, Los Bafios, Phillipines) were obtained. Embryonic rice callus cultures were grown as suspensions in liquid culture as well as on phytagel plates containing MS medium supplemented with 2.0 mg/L 2,4-D. Cultures were propagated and digested for making protoplasts as previously described except that 10 mM HEPES (Sigma, St. Louis, Mo., USA), pH 5.6, was substituted for phosphate in the Krens'F medium, and 2% (weight/volume; w/v) cellulase YC, 0.35% (w/v) macerozyme, and 0.1% (w/v) pectolyase Y23 were used for overnight digestion (Karlan Research Products, Santa Rosa, CA, USA). Protoplasts were transformed with various mixtures of DNA reporter and effector constructs using polyethylene glycol precipitation. Transformed protoplasts were incubated with or without 100 μM ABA for 16 h in the dark in Krens solution before quantifying β-glucuronidase (GUS) and luciferase (LUC) reporter enzyme activities as previously described. ABA was dissolved and stored in absolute ethanol at −20° C. as a 0.1 M stock solution. Prior to use, required dilutions of ABA were made in Krens solution, and control samples received the same volume of solvent as in ABA treatments.
# as §1
# Simultaneously, it has been shown that ABF2, ABF3 and ABF4 overexpression in transgenic Arabidopsis results in ABA hypersensitivity and other ABA-associated phenotypes such as altered ABA-inducible gene expression and glucose signaling, reduced transpiration, and enhanced drought tolerance. The functional roles of the ABI5-like family members ABF1-ABF4 in regulation of ABA-inducible gene expression in rice protoplasts were tested and the results are shown in FIG. 1. […] Protoplasts were transformed with Em-GUS and a “dummy” effector construct (pD2.6 containing only the Ubiquitin promoter used to drive effector expression) or co-transformed with a Ubi-ABF construct and treated with or without 100 μM ABA. The values shown in FIG. 1A are the average (±S.E.M.) of four replicate transformations.
# Rice protoplasts were transformed with either Em-GUS alone or in pairwise combinations of Ubi-ABF3, Ubi-ABI5, or 35S-VP1. The values in FIG. 1B are the average (±S.E.M.) of four replicate transformations. ABF3 is a related member of the ABI5-family of bZIP transcription factors.
Molecule,Synergy with co-transformed VP1 on Em-GUS expression [1],Synergy with exogenous ABA on Em-GUS expression [1],Transactivation of Em-GUS expression by overexpressed effector [1],"Synergy with exogenous ABA on Em-GUS expression ([2]; 100 μM ABA, 16 h)",Synergistic activity with VP1 relative to that of ABI5 with VP1 ([2]; co-expressed with VP1),Transactivation of Em-GUS expression by overexpressed effector [2],Synergy with co-expressed VP1 on Em-GUS expression ([2]; pairwise co-transformation with 35S-VP1),Synergy with co-expressed ABI5 on Em-GUS expression ([2]; pairwise co-transformation with Ubi-ABI5)
B1,can synergize with co-transformed VP1,synergize with exogenous ABA,sufficient for transactivation of the Em promoter; also recorded: sufficient for specific Em-GUS transactivation; also recorded: sufficient to transactivate Em-GUS expression,strong; also recorded: acted in synergy with ABA; also recorded: interacts synergistically,about twice the synergistic activity seen between ABI5 and VP1,sufficient for transactivation of the Em promoter; also recorded: transactivated the Em promoter; also recorded: sufficient to transactivate ABA-inducible Em-GUS expression,synergized with each other and with ABA; also recorded: interacts synergistically,did not result in synergy
B2,not,lower levels of ABA synergy compared to ABF3 and ABF4,,,,no effect on Em-GUS expression,,
B3,no functional interactions with VP1 and not,synergize with exogenous ABA,sufficient for transactivation of the Em promoter; also recorded: sufficient to transactivate Em-GUS expression,,,sufficient for transactivation of the Em promoter; also recorded: sufficient to transactivate ABA-inducible Em-GUS expression,,
